Patent US20210292396A1

Tests used:
Assay in all cases: cell-based or functional assay
[1] = target: HIV Env of isolate P0402.c2.11 (HIV)
[2] = target: HIV Env of isolate 288.38 (HIV)
[3] = target: Env of HIV isolate 3873.v1.c24 (clade C) (HIV)
[4] = target: HIV Env of isolate 96ZM651.02 (HIV)
[5] = target: Env of HIV isolate NKU3006.ec1 (clade D) (HIV)
[6] = target: Env of HIV isolate 3988.25 (clade B) (HIV)
[7] = target: Env of HIV isolate Q259.17 (clade A) (HIV)
[8] = target: Env of HIV isolate 235-47 (clade AG) (HIV)
[9] = target: HIV Env of isolate TH023.6 (HIV)
[10] = target: HIV Env of isolate 3718.v3.c11 (HIV)
[11] = target: Env of HIV isolate CNE8 (clade AE) (HIV)
[12] = target: Env of HIV isolate ZM214.15 (clade C) (HIV)
[13] = target: HIV Env of isolate 3468.v1.c12 (HIV)
[14] = target: Env of HIV isolate DU123.06 (clade C) (HIV)
[15] = target: HIV Env of isolate R2184.c4 (HIV)
[16] = target: Env of HIV isolate T255-34 (clade AG) (HIV)
[17] = target: HIV Env of isolate 25711-2.4 (HIV)
[18] = target: HIV Env of isolate A07412M1.vrc12 (HIV)
[19] = target: Env of HIV isolate P0402.c2.11 (clade G) (HIV)
[20] = target: Env of HIV isolate 398-F1.F6.20 (clade A) (HIV)
[21] = target: Env of HIV isolate MB539.2B7 (clade A) (HIV)
[22] = target: HIV Env of isolate CNE55 (HIV)
[23] = target: HIV Env of isolate T257-31 (HIV)
[24] = target: Env of HIV isolate SF162.LS (clade B) (HIV)
[25] = target: HIV Env of isolate QH0692.42 (HIV)
[26] = target: Env of HIV isolate 6631.v3.c10 (clade C) (HIV)
[27] = target: Env of HIV isolate BR07.DG (clade B) (HIV)
[28] = target: HIV Env of isolate CNE58 (HIV)
[29] = target: HIV Env of isolate BaL.26 (HIV)
[30] = target: Env of HIV isolate X1632.S2.B10 (clade G) (HIV)
[31] = target: HIV Env of isolate X2088.c9 (HIV)
[32] = target: HIV Env of isolate 001428-2.42 (HIV)
[33] = target: Env of HIV isolate SC422.8 (clade B) (HIV)
[34] = target: Env of HIV isolate 271-11 (clade AG) (HIV)
[35] = target: Env of HIV isolate KER2018.11 (clade A) (HIV)
[36] = target: HIV Env of isolate T250-4 (HIV)
[37] = target: Env of HIV isolate BaL.26 (clade B) (HIV)
[38] = target: Env of HIV isolate CNE58 (clade C in Table 7) (HIV)
[39] = target: Env of HIV isolate 6535.3 (clade B) (HIV)
[40] = target: Env of HIV isolate BL01.DG (clade B) (HIV)
[41] = target: Env of HIV isolate BB201.B42 (clade A) (HIV)
[42] = target: Env of HIV isolate 89.6.DG (clade B) (HIV)

Q: Which IC80, pseudovirus neutralization [1] does the source give for PGT121 (antibody) here?
A: 0.0297 mg/L

Q: And the IC80, pseudovirus neutralization [2]?
A: 0.0443 mg/L

Q: And the IC50, pseudovirus neutralization [3]?
A: 0.045 mg/L

Q: And the IC80, pseudovirus neutralization [4]?
A: 0.0613 mg/L

Q: And the IC50, pseudovirus neutralization [5]?
A: > 50 mg/L

Q: What about the IC50, pseudovirus neutralization [6] of the same substance?
A: 0.0127 mg/L

Q: And the IC50, pseudovirus neutralization [7]?
A: > 50 mg/L

Q: And the IC50, pseudovirus neutralization [8]?
A: 0.132 mg/L

Q: And the IC80 [9]?
A: > 50 mg/L

Q: And the IC80 [10]?
A: 4.76 mg/L

Q: And the IC50, pseudovirus neutralization [11]?
A: > 50 mg/L

Q: And the IC50, pseudovirus neutralization [12]?
A: 0.392 mg/L

Q: What about the IC80 [13] of the same substance?
A: 0.413 mg/L

Q: And the IC50, pseudovirus neutralization [14]?
A: 0.0477 mg/L

Q: And the IC80 [15]?
A: > 50 mg/L

Q: And the IC50, pseudovirus neutralization [16]?
A: 2.04 mg/L

Q: And the IC80, pseudovirus neutralization [17]?
A: 0.0497 mg/L

Q: And the IC80, pseudovirus neutralization [18]?
A: 0.208 mg/L

Q: What about the IC50, pseudovirus neutralization [19] of the same substance?
A: 0.0123 mg/L

Q: And the IC50, pseudovirus neutralization [20]?
A: 0.0223 mg/L

Q: And the IC50, pseudovirus neutralization [21]?
A: > 50 mg/L

Q: And the IC80 [22]?
A: > 50 mg/L

Q: What about the IC80 [23] of the same substance?
A: > 50 mg/L

Q: What about the IC50, pseudovirus neutralization [24] of the same substance?
A: 0.00733 mg/L

Q: And the IC80 [25]?
A: 5.8 mg/L

Q: What about the IC50, pseudovirus neutralization [26] of the same substance?
A: > 50 mg/L

Q: And the IC50, pseudovirus neutralization [27]?
A: 0.132 mg/L

Q: And the IC80, pseudovirus neutralization [28]?
A: > 50 mg/L

Q: And the IC80 [29]?
A: 0.06 mg/L

Q: What about the IC50, pseudovirus neutralization [30] of the same substance?
A: > 50 mg/L

Q: And the IC80, pseudovirus neutralization [31]?
A: 0.019 mg/L

Q: And the IC80, pseudovirus neutralization [32]?
A: 0.108 mg/L

Q: What about the IC50, pseudovirus neutralization [33] of the same substance?
A: 0.115 mg/L

Q: What about the IC50, pseudovirus neutralization [34] of the same substance?
A: > 50 mg/L

Q: And the IC50, pseudovirus neutralization [35]?
A: > 50 mg/L

Q: What about the IC80 [36] of the same substance?
A: 0.0123 mg/L

Q: What about the IC50, pseudovirus neutralization [37] of the same substance?
A: 0.0227 mg/L

Q: And the IC50, pseudovirus neutralization [38]?
A: 9.34 mg/L

Q: And the IC50, pseudovirus neutralization [39]?
A: 0.00633 mg/L

Q: What about the IC50, pseudovirus neutralization [40] of the same substance?
A: 19.6 mg/L

Q: And the IC50, pseudovirus neutralization [41]?
A: 0.00933 mg/L

Q: What about the IC50, pseudovirus neutralization [42] of the same substance?
A: 0.0337 mg/L
